The series is described as follows: yeast display, Sf9 membrane polyspecificity reagent, FACS + sequencing; frameworks hold sequencing errors. In short, it runs like this:
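In a synthetic yeast display library (Saccharomyces cerevisiae BJ5465), nanobody expression was induced with galactose for 36–48 hours. FACS gates were set low and high (top ~1%) using anti-HA fluorescence for expression and streptavidin fluorescence for binding of the Sf9 membrane reagent. Each polyreactivity label is drawn from the gate of origin.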
Turning to “QDQLVESGGGLVQAVGSLRLSCAASGRIFVYNAMGGYRQAPGKEREFVATITSSGGRTYYADSVKGRFTISRDNSKNTVYLQMNSLKPEDTAVYYCAARPQNNGRNPVYRYNYWGQGTQVTVSS”, the “polyreactivity (PSR sort gate)” value is listed as “high polyreactivity”.

For the sequence “QDQLVESGGGLVQEGGSLRLICGASGFIFPTNAMGWYRPAPGKERELVAAISRSGGTTNYADSVKGRFTISRDNAKNTVYLQRNSLKPEDTAVYYCNRGWATWHGPDDYWGQGTQVTVSS”, the “polyreactivity (PSR sort gate)” value is reported as “high polyreactivity”.

Take “QDQLVESGGGLVQEGGSLRLSCAASGRTFISKVMGWYRQAPGKERELVAAISGSSGSTRYADSVKGRFTISRDYAKNTVYLQMNSLKPEDTAVYYCAPRAPWPKWGYYYWGLGTQVTVSS”: the “polyreactivity (PSR sort gate)” value is “high polyreactivity”.

For the sequence “QDQLVESGGGLVQGGGSLRLSCAGSGFTFSRYAMGSYRQAPGKERELVAAITRRRGRTYYADSVKGRFTISLDNAKNTVYFKMNSLYPEDTAVYYCNTDAYRLGYDYWGQGTQVTVSS”, the “polyreactivity (PSR sort gate)” value was “high polyreactivity”.

“QDQLVESGGGVVQAGGSLRLSCAASGSTFEYNAMGWYRQAPGKERELVASSTNYADSVKGRFTISRDNAKNTVYLQMNSLKPEDTAVYYCGREQGVNRNHDYWGQGTQVTVSS”: the “polyreactivity (PSR sort gate)” value is “low polyreactivity”.

Turning to “QDQLVESGRGLVQAGGSLRLSCAASGINIPVYAMGWYRKAPRKERELLAAISSGGSTYYADSVKGRFTISRDNAKNTVYLQMNSLKPEDTAVYYCAAATRSAKYRFGYWGQGTQVTVSS”, the “polyreactivity (PSR sort gate)” value is reported as “high polyreactivity”.

As for “QDQLVESGRGLVQEGGSLRLSCAASGSIFWSNGMGWYRQAPGKERELVATISSSGSDTYYAASVKGRFTISRDTAKNTVYFQMNSLKPEDTAVYYCNVYSIWGTYDYRGQGTQVTVSS”, the “polyreactivity (PSR sort gate)” value was “low polyreactivity”.

As to “QDQLVESGVGFVQAGVSLRLSSAASGSIFYLNAMGWYRQAPGKERELVAAITNGGSTYADSVKGRFTISRDNAKNTVYLPMNSLKPEDPAVYYCATRSWELGDYLGQGTQVTVSS”, the “polyreactivity (PSR sort gate)” value is reported as “low polyreactivity”.

On to “QDQLVESRGGLVQAGGSLRLSCAASGFTFYRYAMGWYRQAPGKERELVAAITWRGTSTYYADSVKGRFTISRDNAKNTVYLQMNSLKPEDTAVYYCNADRGYKYDYWGQGTQVTVSS”, for which the “polyreactivity (PSR sort gate)” value was “high polyreactivity”.

“QDQLVESRGGLVQAGGSLRLSCAASGSIFIENTMGWYRQAPGKERELVAAISGSVGRTFYADSVKGRFTISRDNAKNTVYLQMNSLKPEDTAVYYCAAVRRTSPGWVYYWGQGTRVTVSS”: the “polyreactivity (PSR sort gate)” value is recorded as “high polyreactivity”.

In the case of “QDQLVESRVGLVQAGGSLRLSCAASGRIIPKYAMGWYRQAPGKERELVAAISSSGGSTYYADSVKGRFTISRDYAKNNVYLQMNSLNPEVTAVYYCNVDKATRYRYPGFDYWGQGTQVSVSS”, the “polyreactivity (PSR sort gate)” value is reported as “high polyreactivity”.

Regarding “QDQLVESRVGLVQAGGSLRLSCAATGFTFLSYTMGWYIQAPCKERELLADNTRSGGSTYYADSVKGRFTISRDNAKNSVYLQMNSLKPEDTAVYFCAARYSYDRYRGSQQFYYWGQGTQVTVSS”, the “polyreactivity (PSR sort gate)” value is recorded as “high polyreactivity”.

As for “QDQLVESVGGIVQAGGSLRLRCAASGFIYSRNAIGWYSEAPGKDREFVARIRWSVGSTYYADSVKGRFTISRENAKNTVYLMMTSLKPEVTAVYSCAADYYKRYKYLYDYWGQGTQVTVSS”, the “polyreactivity (PSR sort gate)” value is “high polyreactivity”.

“QDQLVESVGGLVQAGGSLRLSCAASGSIFIGYAMGWYRQAPGKERELVAAITSGGSTYADSVKGRFTISRDNAKNTVYLQMNSLKPEDTAVYYCAARFFLVTLDYCGQGTQVTVSS”: the “polyreactivity (PSR sort gate)” value is reported as “low polyreactivity”.

Consider “QDQLVESWGGLDKAGGSLLLICDASGSTFKFYTMGWYRQAPGKERELVATIDWSGVSTYYADSVKGRFTISRDNAKNTVYLQMNSLKPEDTAVYYCAARSLRLVGPYYYWGQGTQVTVSS”, for which the “polyreactivity (PSR sort gate)” value is on record as “high polyreactivity”.

For the sequence “QDQLVETLGGLVQAGASLRLSCAASGSIFGNNAMVWYRQEPGKERELVAAISGTGGTTYADSVKGRFTISRDNAKNTVYLQMNSLKPEDTAVYYWALRVWVRDYPFGYARYGYWGQGTQVTVSS”, the “polyreactivity (PSR sort gate)” value is listed as “low polyreactivity”.

In the case of “QDQLVQSGGGLVQAGGSLRLSCAASAITFVIYSMGWYRQAPGKERELVAAIDGSDGSTYYADSVKGRFTISRDTAKNTVYLQMNSLKPEDTAVYYCNADTGGYYVTGSYLYNEYDYWGQGTQVTVSS”, the “polyreactivity (PSR sort gate)” value is given as “low polyreactivity”.

As to “QDQLVQSGGGLVQAGGTLRLSCAASGRIIYVNAMGWYRQAPGKERDFVATITRGGSTYYADSVKGRFTISRDNAKNTVYFQMNSLQPEDTAVYYCATVRGGWKGRGHRNDYWGQGTQVTVSS”, the “polyreactivity (PSR sort gate)” value is “high polyreactivity”.

For the sequence “QDQQVESGGGLVQAGGSLRLSCAASGFTFRKKAKGWYRQAPGKERELVAAISASGGSTYYADSVKGRFTISRDNAKNTVYLQMNSLKPEDTDVFYCARDRSNAFNYWGQGTQVTVSS”, the “polyreactivity (PSR sort gate)” value was “high polyreactivity”.

As to “QEKHVESGGGLVQAGGSLLLSCAASGLTFYHNAMGWYRQAPGKERELVAAISSGGTTNYADSVKGRFTISRDNAKNTVYLQMNSLTPEDTAVYYCAARGWGPTRAYDYWGQGTQVTLSS”, the “polyreactivity (PSR sort gate)” value is listed as “high polyreactivity”.

With “QEKLQESGSGLVQAGGSLRLSCAASGNIFQDWVMRWYRQAPGKERELVAAISPGAITYYADSVKGRFTISRDNAKNTVYLQTNSLKPEDTAVYYCAAYYIVEYLHGYWGQGTRVTVSS”, the “polyreactivity (PSR sort gate)” value is “low polyreactivity”.

For “QEQLLESGGGLLQAGGSLRLSCAASGSNFVSVTMGWYRQATGKELELVASIGRGSTTNHADSVKGRFTISRDNAKNIVYLLMNSLKPEDTAVYYCAALESYGKYHGYWGQGTQVTVSS”, the “polyreactivity (PSR sort gate)” value is recorded as “low polyreactivity”.

Turning to “QEQLQERGGGLVQAGGSQRLGCAASGNISDAGYMGLYRQAPGKERELVAAIAAGSNTNYADSVKGRFTISRDNAKNTVYLQMNSLKPEDTAVFYCAVASYALVQYEYWGQGTQVTVNS”, the “polyreactivity (PSR sort gate)” value is reported as “low polyreactivity”.

Regarding “QEQLQESGGCLVQAGGSLRLSCAASGSIFYVYGMGWFRQPPGKELELVAGINDGTNTNYADSVRGRFTISRDNAKNTVLLQMNSLKPEDTAVYYCAADGNCYQAHEYWGVGTQVTVSS”, the “polyreactivity (PSR sort gate)” value is “high polyreactivity”.

As to “QEQLQESGGCPVLAGGSLRLSCAASGTIFVRLDMGWYRQAPGKEREFVATIGSGSSTYYADSVKGSFTISRDNVKNTVYLQMNSLKPEDTAVYYCAVSAAEQSRHYYWDQGTQVTVSS”, the “polyreactivity (PSR sort gate)” value was “low polyreactivity”.

As for “QEQLQESGGGLVLAGGSLSLSCPESGYISWSFTMGWYRKAPGKEREFVAGITYGGITYYADSVKGRFTIRRDNGKNTVYLQLNSLKPEDTAVFYCAAPQTYPYVYVYWGQGTQVTVCS”, the “polyreactivity (PSR sort gate)” value is “high polyreactivity”.

Take “QEQLQESGGGLVQAGDSPRLSCAESGYISARTGMGSYRQAPGKEREFVAGIASGTSTHYADSVKGRFTISRDNAKNAVYLQMNSLKPEDTAVYYCAKDYRYIFIYPYGWTRYDYWGQGTQVTVSS”: the “polyreactivity (PSR sort gate)” value is “low polyreactivity”.

As to “QEQLQESGGGLVQAGGDLRLSCAESGNIFRDYIMGWYRQAPGKEREFVAGIDRGANTNYADSVKGRFTISRDNAKNTVYLQMNSLKPEDTAVYYCAVHTAIVPDFIYWGQGTQVTVSS”, the “polyreactivity (PSR sort gate)” value is “low polyreactivity”.

“QEQLQESGGGLVQAGGSLRLSCAASGNIYDADIMGWYRQAPGKERELVTSITDGGSTNYADSVKGRFTISRDNAKNTVYLQMNSLKPEDTAVYYCAAIAYPDIPTSFDYNSDYSYWGQGTQVTVSS”: the “polyreactivity (PSR sort gate)” value is listed as “low polyreactivity”.

On to “QEQLQESGGGLVQAGGSLRLSCAASGSISGSSTMGWYRQAPGKERELVASIAVGANTNYADSAKGRFTISRDNAKNTVYLQMNSLKPEDTAVYYCAVDYYIYYFHYWGQGTQVTVSS”, for which the “polyreactivity (PSR sort gate)” value was “high polyreactivity”.

Take “QEQLQESGGGLVQAGGSLRLSCAASGSISQAWYMGWYRQAPGKERELVAAINVGAITYYADSVKGRFSISRDNAKNTVYLPMNSLTPEDTAVYYCAVDQYSEAYYDYWGQGTQATVSS”: the “polyreactivity (PSR sort gate)” value is “high polyreactivity”.

For “QEQLQESGGGLVQEGGSLRLSCAASGNISPPADMGWYRQAPGKERELVASIGTGGTTNYADSVKGRFTISRDNAKNTVYLQMNSLKPDDTAVYYCAAVRYEYNPYDYWGQGTQVTVSS”, the “polyreactivity (PSR sort gate)” value is “low polyreactivity”.

“QEQLQESGGGMVQVGGTLRLSCAATGTIFIYGFLGWNRQAPGKERELVASINLGGITNYADSVKGRFTISRDNAKNTVYLQMISLKPEDTAVYYCAAYLVTGQNYGYWGQGTQVTVSS”: the “polyreactivity (PSR sort gate)” value is reported as “low polyreactivity”.

In the case of “QEQLQESGSGLVQAGGSLRLICAASRNIFQDWVMGWYRKEPGKEPELVAAISPGAITYYADSVKGRFTISRDNAKNTVYLQTNSLKPEDTAVYYCGAYYIVEYLHGYWGQGTRVTVSS”, the “polyreactivity (PSR sort gate)” value is “low polyreactivity”.

With “QEQLVESAGGLVQAGGSLRLSCAASGSTFYRYAMGWNRQAPGKERELVAAITSSGGSTYYADSVKGRFTISRDNAKNTVYLQMNRLKPEDTAVYYWNAVRRRQSDYWGQGTQVTVSS”, the “polyreactivity (PSR sort gate)” value is on record as “high polyreactivity”.

As for “QEQLVESGGGLVQAGGSLRLSCAASGFTFWYYAMGWYRQAPGKEREFVAAISLGGGRTYYADSVKGRFTHSRDNAKNTVYLQMNSLKPEDTAVYYCAVDSGTYRSYRYDYCGQGTQVTVSS”, the “polyreactivity (PSR sort gate)” value was “high polyreactivity”.

As to “QEQLVESGGGLVQAGGSLRLSCAASGSIQPNAMGWYRQAPGKEREFVAAISRSGASTYYADSVKGRFTISRDNAKNTVYLQMNSLKPADTAVYYCAADFYYYNNNDYDYWGQGTQVTVSS”, the “polyreactivity (PSR sort gate)” value was “high polyreactivity”.

Take “QEQLVESGGGLVQAGGSLRLSCAPSGSIMYVYAMGWYRPAPGKERELVAVITSGGSTTYADSVKGRFTMSRDNAKNTVYLQMNSLKPEDTAVYYCAAVPYSVYGGDYWGQGTQVTVSS”: the “polyreactivity (PSR sort gate)” value was “low polyreactivity”.

For the sequence “QFHLVESGGGLVQAGGSLRLTCAASGRTFAYYAMGWYRQAPGKEREMVAGITRNGGSTYYADSVKGRFTISRDNAKNTVYLQMNSLKPEDTAVYYCAAGFTTRRGEYNYWGKGTQVTVSS”, the “polyreactivity (PSR sort gate)” value is given as “high polyreactivity”.

Take “QFHLVETGRGLVQAGGSLRLSCAASGVTYSQYAMGWYRQAPGKERELVARISRRRGSTSYADSVKGRCTISRDNAKNTVYLQMNRMKPEDTAVYYCAKDSPSVYPGRFGNTGGYAYDYWGQGTQVTVSS”: the “polyreactivity (PSR sort gate)” value is “high polyreactivity”.

Consider “QFKLVESGGVLVKEGGRLRLICAASGSTFDENDMGRYRQAPGKEMEIVAVIYIGTSTNYADSVKGRFTISRDNAKNTVYLQMNSLKPEDTAVYYCAADVPGSYLVAIVGNAFNYWGQGTQVTVSS”, for which the “polyreactivity (PSR sort gate)” value is on record as “low polyreactivity”.

The record behind these values is the nanobody polyreactivity screen of Harvey et al. (2022).
